Measurements: patent publication US20190062427A1

Assays:
[1] = molecular target: Siglec-9-Fc (R&D Systems, catalog number 1139-SL-050) (human) (UniProt Q9Y336); experiment: blocking assay by flow cytometry on U937 cells (sialic acid ligands); same table: S9-Fc alone 156, secondary alone 37.6; panel headed 'Isotype does not block'
[2] = molecular target: human Siglec-9 expressed on human cells (human) (UniProt Q9Y336); experiment: flow cytometry on human primary monocytes, PE-conjugated secondary antibody only (no primary), background control
[3] = molecular target: human Siglec-9 expressed on human cells (human) (UniProt Q9Y336); experiment: flow cytometry on human primary macrophages, PE-conjugated secondary antibody only (no primary), background control
[4] = molecular target: human Siglec-9 expressed on human cells (human) (UniProt Q9Y336); experiment: flow cytometry on human primary dendritic cells, PE-conjugated secondary antibody only (no primary), background control
[5] = molecular target: human Siglec-9 expressed on human cells (human) (UniProt Q9Y336); experiment: cell-based or functional assay
[6] = molecular target: human Siglec-9 expressed on human cells (human) (UniProt Q9Y336); experiment: flow cytometry on human primary monocytes, isotype control, PE secondary
[7] = molecular target: human Siglec-9 expressed on human cells (human) (UniProt Q9Y336); experiment: flow cytometry on human primary macrophages, isotype control, PE secondary
[8] = molecular target: human Siglec-9 expressed on human cells (human) (UniProt Q9Y336); experiment: flow cytometry on human primary dendritic cells, isotype control, PE secondary

Sequence of human Siglec-9 expressed on human cells (human) (Q9Y336 18-463): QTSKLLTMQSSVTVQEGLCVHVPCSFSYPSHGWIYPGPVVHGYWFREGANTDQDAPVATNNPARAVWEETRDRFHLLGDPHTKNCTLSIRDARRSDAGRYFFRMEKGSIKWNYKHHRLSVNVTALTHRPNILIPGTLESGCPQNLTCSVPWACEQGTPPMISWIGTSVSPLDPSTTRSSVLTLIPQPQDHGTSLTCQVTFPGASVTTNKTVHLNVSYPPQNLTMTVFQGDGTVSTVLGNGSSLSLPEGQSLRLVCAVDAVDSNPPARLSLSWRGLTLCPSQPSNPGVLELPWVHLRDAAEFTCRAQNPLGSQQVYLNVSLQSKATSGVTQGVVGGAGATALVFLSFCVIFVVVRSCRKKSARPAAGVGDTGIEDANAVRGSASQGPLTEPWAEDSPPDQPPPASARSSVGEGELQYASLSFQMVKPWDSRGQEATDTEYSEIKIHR
Sequence of Siglec-9-Fc (R&D Systems, catalog number 1139-SL-050) (human) (Q9Y336 18-348 limits assumed): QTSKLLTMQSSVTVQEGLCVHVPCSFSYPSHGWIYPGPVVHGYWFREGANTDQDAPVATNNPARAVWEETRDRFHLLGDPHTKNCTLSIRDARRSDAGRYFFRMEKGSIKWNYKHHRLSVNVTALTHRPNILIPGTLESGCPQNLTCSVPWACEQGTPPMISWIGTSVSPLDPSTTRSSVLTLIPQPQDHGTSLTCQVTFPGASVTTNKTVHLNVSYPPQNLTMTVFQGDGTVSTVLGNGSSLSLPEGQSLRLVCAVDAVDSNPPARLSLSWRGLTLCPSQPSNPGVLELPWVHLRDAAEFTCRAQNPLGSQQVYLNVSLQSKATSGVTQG

Substance | Mean : PE-A (Siglec-9-Fc bound to U937 cells in the presence of the mAb) [1] | % Positive [2] [%] | MFI [2] | % Positive [3] [%] | MFI [3] | % Positive [4] [%] | MFI [4] | Percent Siglec-9 Surface Expression, DCs (% Siglec-9) [5] [%] | Percent Siglec-9 Surface Expression, Macrophages (% Siglec-9) [5] [%] | Percent Siglec-9 Surface Expression, Microglia (% Siglec-9) [5] [%] | Percent Siglec-9 Surface Expression, Monocytes (% Siglec-9) [5] [%] | Percent Siglec-9 Surface Expression, THP-1 cells (% Siglec-9) [5] [%] | % Positive [6] [%] | MFI [6] | % Positive [7] [%] | MFI [7] | % Positive [8] [%] | MFI [8]
Isotype (antibody) | 203 | – | – | – | – | – | – | – | – | – | – | – | – | – | – | – | – | –
PE-conjugated secondary antibody | – | 2.6 | 105 | 3.58 | 153 | 7.05 | 90.1 | – | – | – | – | – | – | – | – | – | – | –
mIgG1 isotype control antibody | – | – | – | – | – | – | – | 96.5 | 99.3 | 90.3 | 100 | 100 | 2.6 | 104 | 3.01 | 115 | 12.3 | 132
mIgG2a isotype control antibody | – | – | – | – | – | – | – | 98.6 | 97.8 | 91.2 | 101 | 95.9 | 3.5 | 127 | 22.6 | 164 | 8.45 | 121
mIgG2b isotype control antibody | – | – | – | – | – | – | – | 93.4 | 97.2 | 91.7 | 98.9 | 98 | 4 | 145 | 12.6 | 180 | 26.4 | 319
